According to paper PMC11927444 (Journal for Immunotherapy of Cancer, 2025):

T1: Recombinant Syndecan-1 (2780-SD) (human, UniProt P18827 23-254)
T1 sequence (looked up): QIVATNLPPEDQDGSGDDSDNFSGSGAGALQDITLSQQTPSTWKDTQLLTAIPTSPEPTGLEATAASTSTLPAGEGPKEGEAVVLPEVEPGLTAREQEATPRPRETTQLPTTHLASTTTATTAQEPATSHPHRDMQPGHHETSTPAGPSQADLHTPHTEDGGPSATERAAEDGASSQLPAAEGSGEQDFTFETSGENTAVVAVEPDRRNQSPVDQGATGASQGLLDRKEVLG

B1: Biotinylated IL-34 (ligand, human, UniProt Q6ZMJ4 19-242, looked up)
chain: LGNEPLEMWPLTQNEECTVTGFLRDKLQYRSRLQYMKHYFPINYKISVPYEGVFRIANVTRLQRAQVSERELRYLWVLVSLSATESVQDVLLEGHPSWKYLQEVETLLLNVQQGLTDVEVSPKVESVLSLLNAPGPNLKLVRPKALLDNCFRVMELLYCSCCKQSSVLNWQDCEVPSPQSCSPEPSLQYAATQLYPPPPWSPSSPPHSTGSVRPVRAQGEGLLP
modifications: biotin (biotinylated, site not stated)

Key:
Experiment in all cases: ELISA
Biotinylated IL-34 = target: B1
[1] = target: T1, Recombinant Syndecan-1 (2780-SD)
[2] = target: Recombinant human CSF-1R-Fc (329-MR-100) (human, UniProt P07333 20-517)
Sequence of Recombinant human CSF-1R-Fc (329-MR-100) (P07333 20-517): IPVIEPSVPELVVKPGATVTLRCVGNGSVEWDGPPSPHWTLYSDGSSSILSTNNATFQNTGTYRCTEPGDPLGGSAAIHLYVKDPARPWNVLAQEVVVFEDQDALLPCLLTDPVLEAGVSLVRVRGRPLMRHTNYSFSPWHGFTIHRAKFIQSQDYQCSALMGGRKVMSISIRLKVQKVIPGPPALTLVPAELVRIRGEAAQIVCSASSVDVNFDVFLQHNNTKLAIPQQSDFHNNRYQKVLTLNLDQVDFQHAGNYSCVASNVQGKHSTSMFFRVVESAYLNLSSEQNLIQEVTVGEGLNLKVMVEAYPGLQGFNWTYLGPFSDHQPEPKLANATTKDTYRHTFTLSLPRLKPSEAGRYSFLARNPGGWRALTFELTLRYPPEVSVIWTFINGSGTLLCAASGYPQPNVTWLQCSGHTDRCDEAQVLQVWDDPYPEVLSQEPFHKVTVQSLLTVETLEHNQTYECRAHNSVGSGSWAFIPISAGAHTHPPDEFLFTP

binding result (Biotinylated IL-34) | binding result [1] | binding result [2] | Binder
binds | – | – | Recombinant human TREM2 (9256-T2-50) (receptor, UniProt Q9NZC2 19-174, looked up) HNTTVFQGVAGQSLQVSCPYDSMKHWGRRKAWCRQLGEKGPCQRVVSTHNLWLLSFLRRWNGSTAITDDTLGGTLTITLRNLQPHDAGLYQCQSLHGSEADTLRKVLVEVLADPLDHRDAGDLWFPGESESFEDAHVEHSISRSLLEGEIPFPPTS
– | binds | binds | B1
